Test [1] concerns the target mixture of ACPA-positive IgGs (IgG fraction of an equal-parts mixture of 38 sera from patients suffering from RA having a high serum ACPA titer). In words: competition ELISA: soluble competitor preincubated 2 h with IgG ACPA+ (16 µg/ml), binding to coated citrullinated fibrinogen.
Test [2] has the same target. Nature of the test: cell-based or functional assay.

Our source for the percentage inhibition (plateau value) and amount of TNF-α secreted by macrophages; peptide values is patent US20090298778A1.

Non-standard residues stand in square brackets, D forms with d. No end group written: not given here. Cit = NC(=O)NCCC[C@H](N)C(=O)O

B1: β60-74cit60, 72, 74 peptide (peptide)
peptide: [Cit]PAPPPISGGGY[Cit]A[Cit]-NH2
modifications: N-terminus assumed
SMILES: CC[C@H](C)[C@H](NC(=O)[C@@H]1CCCN1C(=O)[C@@H]1CCCN1C(=O)[C@@H]1CCCN1C(=O)[C@H](C)NC(=O)[C@@H]1CCCN1C(=O)[C@@H](N)CCCNC(N)=O)C(=O)N[C@@H](CO)C(=O)NCC(=O)NCC(=O)NCC(=O)N[C@@H](Cc1ccc(O)cc1)C(=O)N[C@@H](CCCNC(N)=O)C(=O)N[C@@H](C)C(=O)N[C@@H](CCCNC(N)=O)C(N)=O
Turning to B1, the percentage inhibition (plateau value) in test [1] stood at 60%. For the same molecule, in test [2], the amount of TNF-α secreted by macrophages; peptide at 0.8 mg/ml as competitor of IC formation on coated citrullinated fibrinogen was 40 pg/mL and the amount of TNF-α secreted by macrophages; peptide at 4 mg/ml as competitor of IC formation on coated citrullinated fibrinogen is less than 20 pg/mL.

B2: mixture of α36-50cit38, 42 and β60-74cit60, 72, 74 peptides (peptide)
peptide 1: GP[Cit]VVE[Cit]HQSACKDS
peptide 2: [Cit]PAPPPISGGGY[Cit]A[Cit]-NH2
modifications: also: mixture of two free peptides, not a complex
Consider B2, for which, in test [1], the percentage inhibition (plateau value) was 70%.

B3: α36-50cit38, 42 peptide (peptide)
peptide: GP[Cit]VVE[Cit]HQSACKDS
Regarding B3, in test [1], the percentage inhibition (plateau value) is 15%.
